pIC50, pKd: −log10 of the molar value.

Test [1] deals with HLA-B*15:03. The test is described as follows: IEDB peptide-MHC binding, purified MHC/competitive/radioactivity; filed as Kd, often an IC50 or EC50 that approximates it; ≥ and ≤ were set here for values at or beyond the usual limits of such assays. The following applies: source organism: Vaccinia virus WR.
Test [2] addresses HLA-A*30:01. The test is described as above. Conditions: source organism: Vaccinia virus WR.
Test [3] has as its target HLA-B*15:01. The test is described as above. Conditions: source organism: Vaccinia virus WR.
In test [4] the target is HLA-B*08:01. The description is as above. Conditions: source organism: Vaccinia virus WR.
Test [5] addresses HLA-A*32:01. The test is described as above. Conditions: source organism: Vaccinia virus WR.
The target of test [6] is HLA-A*11:01. The test is described as follows: IEDB peptide-MHC binding, purified MHC/competitive/fluorescence; ≥ and ≤ were set here for values at or beyond the usual limits of such assays.
Test [7] has as its target HLA-A*03:01. Described as above.
Test [8] has as its target HLA-A*24:02. Briefly: IEDB peptide-MHC binding, purified MHC/competitive/fluorescence; filed as Kd, often an IC50 or EC50 that approximates it; ≥ and ≤ were set here for values at or beyond the usual limits of such assays.
The target in test [9] is HLA-A*02:01. Briefly: IEDB peptide-MHC binding, purified MHC/competitive/radioactivity; filed as Kd, often an IC50 or EC50 that approximates it; ≥ and ≤ were set here for values at or beyond the usual limits of such assays.
Test [10] concerns the target HLA-A*02:06. The test is described as above. Conditions: source organism: Dengue virus 4 Philippines/H241/1956.
The target in test [11] is HLA-A*02:17. Described as above.
For test [12], the target named is HLA-A*68:02. Described as above. The following applies: source organism: Dengue virus 4 Philippines/H241/1956.
Test [13] addresses HLA-A*02:03. The test is described as above.
Test [14] deals with HLA-B*39:01. Briefly: IEDB peptide-MHC binding, purified MHC/competitive/fluorescence; filed as Kd, often an IC50 or EC50 that approximates it; ≥ and ≤ were set here for values at or beyond the usual limits of such assays.
For test [15], the target named is HLA-B*07:02. The test is described as above.
Test [16] concerns the target HLA-B*35:01. The test is described as above.
The target in test [17] is HLA-B*40:02. The test is described as follows: IEDB peptide-MHC binding, purified MHC/competitive/radioactivity; filed as Kd, often an IC50 or EC50 that approximates it; ≥ and ≤ were set here for values at or beyond the usual limits of such assays.
For test [18], the target named is HLA-B*40:01. Described as above.
Test [19] addresses HLA-B*45:01. The test is described as above.
The target in test [20] is HLA-B*44:02. The description is as above.
For test [21], the target named is HLA-B*44:03. The test is described as above.
Test [22] has as its target HLA-B*18:01. Described as above.
In test [23] the target is HLA-A*02:01. Briefly: IEDB peptide-MHC binding, purified MHC/competitive/fluorescence; ≥ and ≤ were set here for values at or beyond the usual limits of such assays. The following applies: source organism: Zaire ebolavirus.
Test [24] addresses HLA-B*51:01. The test is described as follows: IEDB peptide-MHC binding, purified MHC/competitive/fluorescence; filed as Kd, often an IC50 or EC50 that approximates it; ≥ and ≤ were set here for values at or beyond the usual limits of such assays. Conditions: source organism: Yersinia pestis Nepal516.
The target of test [25] is HLA-A*11:01. The test is described as above. Conditions: source organism: Homo sapiens.
Where [26] appears, read: source organism: Vaccinia virus.
Where [27] appears, read: source organism: Dengue virus 4 Philippines/H241/1956.
Where [28] appears, read: source organism: Salmonella enterica subsp. enterica serovar Typhi.
Setting [29] is: source organism: Mammarenavirus guanaritoense.
Where [30] appears, read: source organism: Influenza A virus H3N2.
The mark [31] stands for this setting: source organism: Dengue virus 1 Singapore/S275/1990.
[32] abbreviates: source organism: Dengue virus 3 China/80-2/1980.
Setting [33] is: source organism: Zaire ebolavirus.
Setting [34] is: source organism: Yersinia pestis Nepal516.
Where [35] appears, read: source organism: Dengue virus 2 Thailand/NGS-C/1944.
[36] abbreviates: source organism: Mammarenavirus lassaense.

The pKd is the negative decadic logarithm of the Kd, by convention in mol/L. For orientation: pIC50 means the IC50 on a negative log10 scale, so that one unit is a factor of ten. With RNKLSYRNK, the negative logarithm of the Kd (pKd) was 4.79 in test [1]; 7.19 in [2]; at most 4.53 in test [3]; at most 4.21 in test [4]; at most 4.36 in test [5]. Further, the pIC50 in test [6] (setting [26]) is at most 4.04; in test [7] (setting [26]) it was 4.35.
The sequence YYLLFYPTI gave a pKd in test [8] (source organism: Bacillus thuringiensis str. Al Hakam) of at least 10.00.
Regarding MVIGMAMTTV, the pKd in [9] (setting [27]) is 8.03; in test [10] it was 8.28; in test [11] (setting [27]), 6.88; in test [12], 8.49; in test [13] (setting [27]) it was 9.85.
As to WPDVFSVSV, the results for the pKd in test [14] (setting [28]), in test [15] (setting [28]) and in [16] (setting [28]) were 8.42, 7.18 and 8.89, respectively.
Turning to KLLTKPWDV, the pKd in [11] (setting [27]) is 6.42.
As to YEERLNEQLL, the negative-log Kd (pKd) in test [17] (setting [29]) was 5.79; in test [18] (setting [29]), 5.61; in test [19] (setting [29]), at most 4.15; in test [20] (setting [29]) it was at most 5.00; in test [21] (setting [29]), 4.84; in test [22] (setting [29]) it was 5.22.
In the case of RMKWMMAM, the pKd in test [15] (setting [30]) was 5.49.
Consider FLAHAIGTSI, for which the pKd in test [9] (setting [31]) is 8.09; in [11] (setting [31]), 8.73; in [13] (source organism: Dengue virus 1 Brazil/97-11/1997), 7.33.
Turning to ALFSGVSWI, the pKd was 9.29 in test [9] (setting [32]), 6.32 in test [11] (setting [32]) and 8.80 in [13] (source organism: Dengue virus 3 Singapore/8120/1995).
In the case of KLSSTNQLR, the results for the negative logarithm of the IC50 (pIC50) in test [23], in [6] (setting [33]) and in test [7] (setting [33]) were at most 3.71, 5.61 and 5.16, respectively.
Turning to IYLNEVNTF, the pKd in test [8] (source organism: Vibrio splendidus 12B01) is at least 10.00.
In test [8] (source organism: Influenza A virus (A/Fort Monmouth/1/1947-mouse adapted(H1N1))), SFFYRYGF had a pKd of 7.45.
FPVAMLSCL: the pKd in [14] (setting [34]) was 7.73; in [24] it was 6.73; in test [15] (setting [34]) it was 7.80; in test [16] (setting [34]), at least 10.00.
For TLAVFLLLI, the results for the pKd in test [9] (setting [31]) and in test [11] (setting [31]) were 5.59 and 5.74, respectively.
Consider LLVLCVTQV, for which the results for the pKd in test [9] (setting [35]), in [11] (setting [35]) and in test [13] (source organism: Dengue virus 2 Peru/IQT2913/1996) were 7.19, at most 5.30 and 7.42, respectively.
LYNKMEFEPF gave a negative-log Kd (pKd) in [8] (setting [30]) of 8.48.
YLDDRNTFR had a negative logarithm of the Kd (pKd) in test [25] of at most 4.70.
Regarding FDAATTGSL, the pKd was 5.64 in [17] (setting [36]); 4.78 in test [18] (setting [36]); 4.84 in [19] (setting [36]); at most 4.65 in test [20] (setting [36]); at most 4.35 in test [21] (setting [36]); at most 4.41 in [22] (setting [36]).

(Values after the Immune Epitope Database (IEDB).)
